{"source": "patent US12366576B2", "about": "“Compositions, assays, and methods for direct modulation of fatty acid metabolism” (Dana-Farber Cancer Institute, Inc., priority 2016, dated 2025)", "biological_target": "T1, native VLCAD (Mus musculus, UniProt P50544)", "T1 construct": "As for native VLCAD from MEF lysates; endogenous in cells; host or cells: SV-40-transformed wild-type mouse embryonic fibroblasts (lysate)", "T1 sequence (P50544 42-656)": "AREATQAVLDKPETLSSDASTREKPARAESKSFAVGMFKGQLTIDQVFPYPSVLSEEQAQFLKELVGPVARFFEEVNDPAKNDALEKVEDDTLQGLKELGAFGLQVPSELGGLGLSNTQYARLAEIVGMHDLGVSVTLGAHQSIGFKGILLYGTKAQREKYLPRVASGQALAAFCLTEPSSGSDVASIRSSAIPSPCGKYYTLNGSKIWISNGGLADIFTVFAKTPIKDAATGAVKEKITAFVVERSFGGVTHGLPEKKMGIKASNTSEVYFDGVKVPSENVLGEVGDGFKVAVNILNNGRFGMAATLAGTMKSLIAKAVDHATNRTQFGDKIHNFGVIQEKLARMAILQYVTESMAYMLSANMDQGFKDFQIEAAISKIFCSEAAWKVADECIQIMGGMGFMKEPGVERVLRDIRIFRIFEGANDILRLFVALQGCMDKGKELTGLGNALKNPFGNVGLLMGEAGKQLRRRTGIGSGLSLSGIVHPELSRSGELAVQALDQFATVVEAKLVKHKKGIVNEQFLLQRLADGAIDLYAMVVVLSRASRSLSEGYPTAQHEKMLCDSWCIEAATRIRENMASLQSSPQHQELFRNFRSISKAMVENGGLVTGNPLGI", "test": "Biotinylated SAHB pulldown from MEF lysates, anti-VLCAD Western analysis", "format": "binding", "conditions": "for best overall binders to VLCAD based on pull-downs and ITC: summary of binding properties; for summary of binding properties: binding to VLCAD: pull-downs and ITC", "text": "To validate the MS result, the pulldowns were repeated and eluates run on a gel for anti-VLCAD Western blot analysis. […] All peptides faithfully recapitulated native BH3-binding propensities for endogenous MCL-1 protein (FIG. 8). The eluates were then probed for the other members of the acyl-CoA dehydrogenase family that manifest shorter fatty acid substrate specificities. MCL-1 SAHBD was able to pull down VLCAD, but not MCAD or SCAD (FIG. 9). Because the traditional MCL-1 staple location differs from that of the BIM, BID, and BAD SAHBs, it was important to confirm that the observed VLCAD binding specificity was due to BH3 sequence selectivity, not staple position. A BIM SAHB with the traditional MCL-1 staple (BIM SAHBF), and a MCL-1 stapled peptide with the traditional BIM staple (MCL-1 SAHBA), were generated. […] To confirm that the selective interaction between MCL-1 SAHBD and VLCAD is direct, recombinant VLCAD was generated and purified by size exclusion chromatography (FIGS. 11 and 12).\nThe binding determinants for the MCL-1 BH3/VLCAD interaction were investigated by generating a series of biotinylated MCL-1 SAHBD alanine point mutants (FIG. 18A) and performing streptavidin pull-downs from MEF lysates, followed by VLCAD and MCL-1 western analysis of the resulting eluates. […] Native alanines and residues not mutated are colored white. The dotted semicircles highlight the distinctive MCL-1 BH3 binding interfaces for VLCAD versus MCL-1 engagement, as defined by the differential sensitivities to alanine mutagenesis.\nWild-type MEFs were trypsinized, washed once with cold PBS, and lysed on ice with NP-40 lysis buffer (50 mM Tris, pH 7.4, 150 mM NaCl, 0.5% (v/v) NP-40, complete protease inhibitor pellet (Roche)) using 1 ml of lysis buffer for every 10 million cells lysed. Cellular debris was pelleted at 14,000 g for 10 min at 4° C., and the supernatant was quantified using the BCA Protein Assay Kit (Thermo Fisher Scientific). 2 mg of lysate per pulldown were then exposed to 50 μL of pre-equilibrated High Capacity Streptavidin Agarose beads (Thermo Fisher Scientific). The pre-cleared lysates were then incubated with 15 nmol biotinylated SAHBs (or vehicle, 1.5% (v/v) DMSO) overnight at 4° C., followed by addition of 50 μL of pre-equilibrated High Capacity Streptavidin Agarose beads for 2 hours at 4° C. The beads were then pelleted and washed with NP-40 lysis buffer three times before eluting the protein sample from the beads by heating at 70° C. for 10 min in SDS loading buffer. Samples were then subjected to electrophoresis and either Western analysis or Coomassie stain (SimplyBlue Safe Stain, Thermo Fisher Scientific). The antibodies used for Western analysis were the following: MCL-1 (Rockland 600-401-394; 1:1000 in 3% BSA), VLCAD (Thermo Fisher Scientific PA5-29959; 1:1000 in 1% milk+0.1% Tween-20), MCAD (Thermo Fisher Scientific PA5-27201; 1:1000 in 3% BSA), and SCAD (Abcam ab154823; 1:1000 in 3% BSA). Coomassie stained gels were then processed for proteomics analysis (see below). Biotinylated SAHB pulldowns of recombinant protein were performed as above incubating 5 nmol of SAHB with 10 pmol of rVLCAD in 500 μL total volume. Densitometry analyses were performed using ImageJ software.", "note": "Bridge positions count the residues as written; N and C are the ends. Square brackets hold non-standard residues; d marks the D form. Ends that are not written are not given here. Peptide text beside a SMILES is read from it. S5 = C=CCCC[C@](C)(N)C(=O)O"}
{"molecule": "CC(=O)N[C@@H](CCCNC(=N)N)C(=O)N[C@@H](CCCCN)C(=O)N[C@@H](C)C(=O)N[C@@H](CC(C)C)C(=O)N[C@@H](CCC(=O)O)C(=O)N[C@H](C(=O)N[C@@H](CC(C)C)C(=O)N[C@@H](CCCNC(=N)N)C(=O)N[C@@H](CCCNC(=N)N)C(=O)N[C@H](C(=O)NCC(=O)N[C@@H](CC(=O)O)C(=O)NCC(=O)N[C@@H](C)C(=O)N[C@@]1(C)CCCC=CCCC[C@@](C)(C(=O)N[C@H](C(=O)N[C@@H](C)C(=O)N[C@@H](Cc2ccccc2)C(N)=O)[C@@H](C)O)NC(=O)[C@H](Cc2c[nH]cn2)NC(=O)[C@H](CC(N)=O)NC(=O)[C@H](CCCNC(=N)N)NC1=O)C(C)C)[C@@H](C)O", "note": "[V220A] (Ac-RKALETLRRVGDGA[S5]RNH[S5]TAF-NH2; staple 15-19; N-terminus and C-terminus assumed)", "values": [{"measurement": "best overall binders to VLCAD based on pull-downs and ITC", "value": "Best overall binders to VLCAD"}, {"measurement": "summary of binding properties: binding to VLCAD", "value": "Binds"}]}
{"molecule": "D218A: biotinylated MCL-1 SAHBD alanine point mutant D218A (RKALETLRRVGAGV[S5]RNH[S5]TAF; staple 15-19; also: biotinylated, place not given here)", "values": [{"measurement": "best overall binders to VLCAD based on pull-downs and ITC", "value": "Best overall binders to VLCAD"}, {"measurement": "summary of binding properties: binding to VLCAD", "value": "Binds"}]}
{"molecule": "F228A: biotinylated MCL-1 SAHBD alanine point mutant F228A (RKALETLRRVGDGV[S5]RNH[S5]TAA; staple 15-19; also: biotinylated, place not given here)", "values": [{"measurement": "summary of binding properties: binding to VLCAD", "value": "Does not bind"}]}
{"molecule": "L213A: biotinylated MCL-1 SAHBD alanine point mutant L213A (RKALETARRVGDGV[S5]RNH[S5]TAF; staple 15-19; also: biotinylated, place not given here)", "values": [{"measurement": "effect of alanine mutation on biotinylated MCL-1 SAHBD interaction with VLCAD", "setting": "pull-downs from MEF lysates", "value": "disrupted"}, {"measurement": "summary of binding properties: binding to VLCAD", "value": "Does not bind"}]}
{"molecule": "MCL-1 SAHBD: hydrocarbon-stapled peptide mimicking the MCL-1 BH3 domain (Stabilized Alpha-Helix of BCL-2 Domain), SEQ ID NO:19 (RKALETLRRVGDGV[S5]RNH[S5]TAF; staple 15-19)", "values": [{"measurement": "summary of binding properties: binding to VLCAD", "value": "Binds"}, {"measurement": "pull down of VLCAD from cellular lysates", "setting": "wild-type MEF lysates, 15 nmol biotinylated SAHB", "value": "VLCAD was detected"}]}
{"molecule": "R207A: biotinylated MCL-1 SAHBD alanine point mutant R207A (AKALETLRRVGDGV[S5]RNH[S5]TAF; staple 15-19; also: biotinylated, place not given here)", "values": [{"measurement": "summary of binding properties: binding to VLCAD", "value": "Does not bind"}]}
{"molecule": "R214A: biotinylated MCL-1 SAHBD alanine point mutant R214A (RKALETLARVGDGV[S5]RNH[S5]TAF; staple 15-19; also: biotinylated, place not given here)", "values": [{"measurement": "summary of binding properties: binding to VLCAD", "value": "Does not bind"}]}
{"molecule": "R215A: biotinylated MCL-1 SAHBD alanine point mutant R215A (RKALETLRAVGDGV[S5]RNH[S5]TAF; staple 15-19; also: biotinylated, place not given here)", "values": [{"measurement": "summary of binding properties: binding to VLCAD", "value": "weakly or not"}]}
